Measured values: patent US20150299268A1 (UNIVERSITY OF MARYLAND BALTIMORE, published 2015)

Legend:
BaL-gp120 [1] = biological target: T1, BaL-gp120 (HIV-1 BaL); assay: ELISA
T1 construct: domain: gp120; also called monomeric gp120; monomeric BaL gp120

FLSC R/T = biological target: T2, FLSC R/T (HIV-1, UniProt P01730 26-208); assay: ELISA
T2 construct: not shown: linker of FLSC not described

gp120-b12-ScFV = assay: ELISA
gp120-VRC01-ScFV = assay: ELISA
gp120-JR4-ScFV = assay: ELISA
gp120-JR48.1-ScFV = assay: ELISA
BaL-gp120 [2] = biological target: T1, BaL-gp120; assay: capture ELISA
FLSC = biological target: T3, FLSC (HIV-1, UniProt P01730 26-208); assay: capture ELISA
T3 construct: not shown: linker of FLSC not described

BaL-gp120-E32A = biological target: T4, BaL-gp120-E32A (HIV-1 BaL); assay: capture ELISA
T4 construct: domain: gp120

BaL-gp120-K33A = biological target: T5, BaL-gp120-K33A (HIV-1 BaL); assay: capture ELISA
T5 construct: domain: gp120

BaL-gp120-W35A = biological target: T6, BaL-gp120-W35A (HIV-1 BaL); assay: capture ELISA
T6 construct: domain: gp120

BaL-gp120-V44A = biological target: T7, BaL-gp120-V44A (HIV-1 BaL); assay: capture ELISA
T7 construct: domain: gp120

BaL-gp120-K46A = biological target: T8, BaL-gp120-K46A (HIV-1 BaL); assay: capture ELISA
T8 construct: domain: gp120

BaL-gp120-D57AD62A = biological target: T9, BaL-gp120-D57AD62A (HIV-1 BaL); assay: capture ELISA
T9 construct: domain: gp120

BaL-gp120-D57AD78A = biological target: T10, BaL-gp120-D57AD78A (HIV-1 BaL); assay: capture ELISA
T10 construct: domain: gp120

BaL-gp120-R58AK59A = biological target: T11, BaL-gp120-R58AK59A (HIV-1 BaL); assay: capture ELISA
T11 construct: domain: gp120

BaL-gp120-D62A = biological target: T12, BaL-gp120-D62A (HIV-1 BaL); assay: capture ELISA
T12 construct: domain: gp120

BaL-gp120-W69A = biological target: T13, BaL-gp120-W69A (HIV-1 BaL); assay: capture ELISA
T13 construct: domain: gp120

BaL-gp120-V75A = biological target: T14, BaL-gp120-V75A (HIV-1 BaL); assay: capture ELISA
T14 construct: domain: gp120

BaL-gp120-P76A = biological target: T15, BaL-gp120-P76A (HIV-1 BaL); assay: capture ELISA
T15 construct: domain: gp120

BaL-gp120-D78A = biological target: T16, BaL-gp120-D78A (HIV-1 BaL); assay: capture ELISA
T16 construct: domain: gp120

BaL-gp120-E106AD107A = biological target: T17, BaL-gp120-E106AD107A (HIV-1 BaL); assay: capture ELISA
T17 construct: domain: gp120

BaL-gp120-I420R = biological target: T18, BaL-gp120-I420R (HIV-1 BaL); assay: capture ELISA
T18 construct: domain: gp120; also called -1420R

BaL-gp120-K487AK490A = biological target: T19, BaL-gp120-K487AK490A (HIV-1 BaL); assay: capture ELISA
T19 construct: domain: gp120

BaL-gp120-V496A = biological target: T20, BaL-gp120-V496A (HIV-1 BaL); assay: capture ELISA
T20 construct: domain: gp120

BaL-gp120-T499A = biological target: T21, BaL-gp120-T499A (HIV-1 BaL); assay: capture ELISA
T21 construct: domain: gp120

BaL-gp120-K500A = biological target: T22, BaL-gp120-K500A (HIV-1 BaL); assay: capture ELISA
T22 construct: domain: gp120

BaL-gp120-S158A = biological target: T23, BaL-gp120-S158A (HIV-1 BaL); assay: capture ELISA
T23 construct: domain: gp120

BaL-gp120-T303A = biological target: T24, BaL-gp120-T303A (HIV-1 BaL); assay: capture ELISA
T24 construct: domain: gp120; glycan mutant, V3 region

BaL-gp120-S334A = biological target: T25, BaL-gp120-S334A (HIV-1 BaL); assay: capture ELISA
T25 construct: domain: gp120; glycan mutant

[3] = biological target: Env of HIV-1 virus T250-4 (HIV-1); assay: cell-based or functional assay
[4] = biological target: Env of HIV-1 virus 3817.v2.c59 (HIV-1); assay: cell-based or functional assay
[5] = biological target: Env of HIV-1 virus 6540.v4.c1 (HIV-1); assay: cell-based or functional assay
[6] = biological target: Env of HIV-1 virus 6545.v4.c1 (HIV-1); assay: cell-based or functional assay
[7] = biological target: Env of HIV-1 virus SF162.LS (HIV-1); assay: cell-based or functional assay
[8] = biological target: Env of HIV-1 virus BaL.26 (HIV-1); assay: cell-based or functional assay
[9] = biological target: Env of HIV-1 virus 6535.3 (HIV-1); assay: cell-based or functional assay
[10] = biological target: Env of HIV-1 virus AC10.0.29 (HIV-1); assay: cell-based or functional assay
[11] = biological target: Env of HIV-1 virus THRO4156.18 (HIV-1); assay: cell-based or functional assay
[12] = biological target: Env of HIV-1 virus CAAN5342.A2 (HIV-1); assay: cell-based or functional assay
[13] = biological target: Env of HIV-1 virus 1006_11_C3_1601 (HIV-1); assay: cell-based or functional assay
[14] = biological target: Env of HIV-1 virus ZM53M.PB12 (HIV-1); assay: cell-based or functional assay
[15] = biological target: Env of HIV-1 virus Du172.17 (HIV-1); assay: cell-based or functional assay
[16] = biological target: Env of HIV-1 virus Du422.1 (HIV-1); assay: cell-based or functional assay

B1: N60-B1.1 (antibody, V domains shown)
VH: QLQLQESGPGLVKPSGTLSLTCSVSGGSMNGRNIYWAWIRQTPGKGLEWIGSVDVSDEDAGRTFYKWPIKSRASISADTSKNQFSLKLSSVTVADTGVYYCARETLYYVGNGYYYPLDVFYYNYYMDVWGKGTTVSVSS
VL: not shown
notes: also called bnAb N60-B1.1
BaL-gp120 [1]
  Fold of Ab needed for ELISA binding OD equal to half max on gp120: 1 fold
FLSC R/T
  Fold of Ab needed for ELISA binding OD equal to half max on gp120: 16.4 fold
gp120-b12-ScFV
  Fold of Ab needed for ELISA binding OD equal to half max on gp120: 0.01 fold
gp120-VRC01-ScFV
  Fold of Ab needed for ELISA binding OD equal to half max on gp120: 0.03 fold
gp120-JR4-ScFV
  Fold of Ab needed for ELISA binding OD equal to half max on gp120: 0.04 fold
gp120-JR48.1-ScFV
  Fold of Ab needed for ELISA binding OD equal to half max on gp120: 0.14 fold
BaL-gp120 [2]
  % Binding: 100%
FLSC
  % Binding: 10%
BaL-gp120-E32A
  % Binding: 108%
BaL-gp120-K33A
  % Binding: 76%
BaL-gp120-W35A
  % Binding: 132%
BaL-gp120-V44A
  % Binding: 114%
BaL-gp120-K46A
  % Binding: 50%
BaL-gp120-D57AD62A
  % Binding: 76%
BaL-gp120-D57AD78A
  % Binding: 103%
BaL-gp120-R58AK59A
  % Binding: 92%
BaL-gp120-D62A
  % Binding: 80%
BaL-gp120-W69A
  % Binding: 84%
BaL-gp120-V75A
  % Binding: 104%
BaL-gp120-P76A
  % Binding: 102%
BaL-gp120-D78A
  % Binding: 108%
BaL-gp120-E106AD107A
  % Binding: 36%
BaL-gp120-I420R
  % Binding: 22%
BaL-gp120-K487AK490A
  % Binding: 31%
BaL-gp120-V496A
  % Binding: 107%
BaL-gp120-T499A
  % Binding: 102%
BaL-gp120-K500A
  % Binding: 94%
BaL-gp120-S158A
  % Binding: 3%
BaL-gp120-T303A
  % Binding: 2%
BaL-gp120-S334A
  % Binding: 91%
[3]
  IC50 Titer (ug/ml), neutralization: 0.019 µg/mL
[4]
  IC50 Titer (ug/ml), neutralization: 1.53 µg/mL
[5]
  IC50 Titer (ug/ml), neutralization: 0.08 µg/mL
[6]
  IC50 Titer (ug/ml), neutralization: 0.37 µg/mL
[7]
  IC50 Titer (ug/ml), neutralization: 0.019 µg/mL
[8]
  IC50 Titer (ug/ml), neutralization: 0.019 µg/mL
[9]
  IC50 Titer (ug/ml), neutralization: 0.019 µg/mL
[10]
  IC50 Titer (ug/ml), neutralization: 0.14 µg/mL
[11]
  IC50 Titer (ug/ml), neutralization: 0.3 µg/mL
[12]
  IC50 Titer (ug/ml), neutralization: 0.019 µg/mL
[13]
  IC50 Titer (ug/ml), neutralization: 0.07 µg/mL
[14]
  IC50 Titer (ug/ml), neutralization: 0.019 µg/mL
[15]
  IC50 Titer (ug/ml), neutralization: 7.08 µg/mL
[16]
  IC50 Titer (ug/ml), neutralization: 0.18 µg/mL
